Reference: IntAct's records for PubMed 17012600

B1: Protein NDR1 (Arabidopsis thaliana (Mouse-ear cress)), O48915 (parent)
chain: MNNQNEDTEGGRNCCTCCLSFIFTAGLTSLFLWLSLRADKPKCSIQNFFIPALGKDPNSRDNTTLNFMVRCDNPNKDKGIYYDDVHLNFSTINTTKINSSALVLVGNYTVPKFYQGHKKKAKKWGQVKPLNNQTVLRAVLPNGSAVFRLDLKTQVRFKIVFWKTKRYGVEVGADVEVNGDGVKAQKKGIKMKKSDSSFPLRSSFPISVLMNLLVFFAIR
partner: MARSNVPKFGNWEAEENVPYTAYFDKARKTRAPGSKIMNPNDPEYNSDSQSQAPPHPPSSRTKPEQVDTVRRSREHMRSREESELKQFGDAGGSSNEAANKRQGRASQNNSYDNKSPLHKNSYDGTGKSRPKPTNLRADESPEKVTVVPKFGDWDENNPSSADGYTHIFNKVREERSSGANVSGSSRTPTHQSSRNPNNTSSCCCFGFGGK

Variants of: B1
Settings: with rin4_arath RIN4, Q8GYN5

Row | effect of a mutation on the interaction | Variant
1 | disrupting interaction | N5A
2 | disrupting interaction | Q4A
